Test results from publication PMC8582077.

B1: S-19 aptamer (ssDNA)
DNA: TGACACCGTACCTGCTCTGCACTTCCTTCACCAGAAACCTGCACATCTTCGCCGCGTGAAGCACGCCAAGGGACTAT
B2: S-12 aptamer (MERS aptamer-b) (ssDNA)
DNA: TGACACCGTACCTGCTCTCCGACCCATCTAGCACTTCACACACGCCCGATCGGATTAGTAAGCACGCCAAGGGACTAT
B3: MF MERS aptamer (3WJ of MERSapt-3WJa, MB/3WJb, NH2/3WJc) (structured_DNA)
DNA 1: TGACACCGTACCTGCTCTGCACTTCCTTCACCAGAAACCTGCACATCTTCGCCGCGTGAAGCACGCCAAGGGACTATTTGCCATGTGTATGTGGG
DNA 2: TTTGGGTAGGGCGGGTTGGGCCCACATACTTTGTTGATCC
DNA 3: GGATCAATCATGGCAA
modifications: 5' NH2 on S6

Legend:
[1] = molecular target: MERS-CoV Spike S1 protein (Middle East respiratory syndrome …, UniProt K9N5Q8 18-751); assay: bead-based fluorescence binding assay
myoglobin = myoglobin (horse, UniProt P68082 2-154); assay: EMSA
myoglobin, sequence (P68082 2-154): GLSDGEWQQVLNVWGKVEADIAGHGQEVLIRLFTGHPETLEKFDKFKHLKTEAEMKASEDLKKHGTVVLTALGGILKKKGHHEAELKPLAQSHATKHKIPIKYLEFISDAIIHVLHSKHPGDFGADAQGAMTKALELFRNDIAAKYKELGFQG

MERS-CoV Spike S1 protein, sequence (K9N5Q8 18-751): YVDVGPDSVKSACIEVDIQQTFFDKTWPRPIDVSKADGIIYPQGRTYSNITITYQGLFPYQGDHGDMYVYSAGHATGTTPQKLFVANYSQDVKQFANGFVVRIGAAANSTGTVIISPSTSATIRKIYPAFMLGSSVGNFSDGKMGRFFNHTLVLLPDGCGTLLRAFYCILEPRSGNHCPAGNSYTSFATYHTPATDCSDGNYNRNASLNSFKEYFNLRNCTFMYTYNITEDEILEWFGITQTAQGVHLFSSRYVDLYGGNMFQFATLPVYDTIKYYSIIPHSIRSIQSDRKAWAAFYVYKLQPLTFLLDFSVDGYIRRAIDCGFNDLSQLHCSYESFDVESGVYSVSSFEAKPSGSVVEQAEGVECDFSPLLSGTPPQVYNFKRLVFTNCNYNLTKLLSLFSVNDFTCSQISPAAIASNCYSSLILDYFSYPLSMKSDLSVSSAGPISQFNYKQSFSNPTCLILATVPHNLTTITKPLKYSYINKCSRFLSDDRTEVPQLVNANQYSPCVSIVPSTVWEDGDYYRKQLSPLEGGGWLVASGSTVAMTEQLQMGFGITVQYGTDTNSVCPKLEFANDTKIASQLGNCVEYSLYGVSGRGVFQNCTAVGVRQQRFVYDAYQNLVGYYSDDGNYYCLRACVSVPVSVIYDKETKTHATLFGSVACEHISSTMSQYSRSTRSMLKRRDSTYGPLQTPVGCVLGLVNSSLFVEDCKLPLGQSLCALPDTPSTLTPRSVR

Binder	Kd [1] [nM]	binding result (myoglobin)
B1	112 ± 3.89	–
B2	287 ± 17.7	–
B3	–	no binding
